We go through 19 sequences from the DeepSol protein solubility set.

A short description of the data set: soluble on expression in E. coli; label from the status in PepcDB or PDB records.
As to “MSTVTITDLARENVRNLTPYQSARRLGGNGDVWLNANEYPTAVEFQLTQQTLNRYPECQPKAVIENYAQYAGVKPEQVLVSRGADEGIELLIRAFCEPGKDAILYCPPTYGMYSVSAETIGVECRTVPTLDNWQLDLQGISDKLDGVKVVYVCSPNNPTGQLINPQDFRTLLELTRGKAIVVADEAYIEFCPQASLAGWLAEYPHLAILRTLSKAFALAGLRCGFTLANEEVINLLMKVIAPYPLSTPVADIAAQALSPQGIVAMRERVAQIIAEREYLIAALKEIPCVEQVFDSETNYILARFKASSAVFKSLWDQGIILRDQNKQPSLSGCLRITVGTREESQRVIDALRAEQV”, the “soluble on expression in E. coli” value is listed as “soluble”. Regarding “MAEERHHTEHIPQWKKDEIENIKELIQSHKVFGMVRIEGILATKIQKIRRDLKDVAVLKVSRNTLTERALNQLGESIPEMTRYLDNQTALIFTNESPFKLYKLLEQTKTPSPIKAGAIAPEDIIVQKGPTSFPPGPILGELQSAGIPASIDAGKVAVKETKVVCKAGEAVPQKLATMLSKLEIYPLIVGLDLRAAYDDGTIYEPELLAVDESKYFSDIIRAAQNAFNLSVNTAYPTGATIGTLLAKAYAESKSLGVNAVILEPGVMDSLLAKAHVQMTSVASEAAEKDANAVDDDLREVLGAAASAAAAATVAAPAAEEEKKEEEPEEEEEDHAEEDGMAGLGALFGLEHHHHHH”, the “soluble on expression in E. coli” value is “soluble”. Consider “MVIHQIKILQSVATSIVEGGRGVTGTPFPNQPDKPLKLYEFEGSPFSRRVREVLTLLNLDVEIYPCPKGGQKYRAIVKEKGGKLQFPFLIDENTGDQLYESQKIIHHLFKHYGKTGHTPEKYQHYPKIPVIGLIATLLNAARGVWVNKKIIHRAAPEQLLELWSFEASPYSRVVRDILTELEIPYVLHNVSKERWQDMGPAILRLKPGPYIPLAGGKRDKMLPMMQGKMQVPYLVDPNTGIHLFESAQIVAYLKKQYGEV”, for which the “soluble on expression in E. coli” value is “not soluble”. As for “MSLDEIKSGKYKHGDKLPTEKELMERFNASRETVRKALERLVVKNLVIRKPGLGTFVNIEKKNKVVGILVQQITSYIFPYIALGAEEVLFANGYKMLLGNASEDPHKERQIINEWLEVGVDGLIIDPVYSATKRSNRDLIEDMAKKGTKVVLVHTNWDIEGVGSVVLDDWYGGEKAAEIFYQYGHRNVAVLYKTIHLPSVVRAQAFLKRGRELGFEKVHEKSFHVSEFTGIVMQSAFELLSLPKDQRPTAVFCYNDATALQFFLAAKRMGLKIPEDVSVIGFDDAPIGDFREILTTFEHPKEEVGKKAVEILLKMIDGEKPEKYVFKPKLIMRESVTYPKEGHHHHHH”, the “soluble on expression in E. coli” value is on record as “soluble”. As to “VDEKALKHITEMGFSKEASRQALMDNGNNLEAALNVLLTSNKQKPVMGPP”, the “soluble on expression in E. coli” value is “soluble”.

Take “MSSVKDTMTTQVATVSPNQTIQEAASLMKQHNVGAIPVVEQGVLKGMLTDRDIALRTTAQGRDGQTPVSEVMSTELVSGNPNMSLEDASQLMAQHQIRRLPIVDQNNLVGIVALGDLAVNQMSNESAGSALTNISHQNIH”: the “soluble on expression in E. coli” value is listed as “not soluble”. “MGSDKIHHHHHHMSGETFEFNIRHSGKVYPITLSTDATSADLKSKAEELTQVPSARQKYMVKGGLSGEESIKIYPLIKPGSTVMLLGTPDANLISKPAKKNNFIEDLAPEQQVQQFAQLPVGFKNMGNTCYLNATLQALYRVNDLRDMILNYNPSQGVSNSGAQDEEIHKQIVIEMKRCFENLQNKSFKSVLPIVLLNTLRKCYPQFAERDSQGGFYKQQDAEELFTQLFHSMSIVFGDKFSEDFRIQFKTTIKDTANDNDITVKENESDSKLQCHISGTTNFMRNGLLEGLNEKIEKRSDLTGANSIYSVEKKISRLPKFLTVQYVRFFWKRSTNKKSKILRKVVFPFQLDVADMLTPEYAAEKVKVRDELRKVEKEKNEKEREIKRRKFDPSSSENVMTPREQYETQVALNESEKDQWLEEYKKHFPPNLEKGENPSCVYNLIGVITHQGANSESGHYQAFIRDELDENKWYKFNDDKVSVVEKEKIESLAGGGESDSALILMYKGFGL”: the “soluble on expression in E. coli” value was “not soluble”. “MYSDSRKRSSDDLIDNSDESKKPKESRNLYCTLAAYGCRKGERADMQDTHIMLPKFDLGTEKSFLSRASFFAIFDGHAGPRAAEHCQSQMGKTVKEKLAKFSDFPTLTKSLKQTFTESYKAVDDGFLAIAKQNKPIWKDGTTATTMIILNNVIYVANIGDSRAVVARKKEDGSFAPVCLTVDHDPMSHDERMRIQKAGAVVKDGRINGVIEVSRSIGDLPFKSLGIISTPDLKKLTLTKNDL”: the “soluble on expression in E. coli” value is recorded as “not soluble”. On to “MGSDKIHHHHHHMFKKIVLHGWRQFRNVDIDFHPRLTVLTGANGAGKTTLLNLVSRHFGWDGSFISTPVPRRSNPSLMYSTDFWDIDDIQVDIIHSFEREQNRKKQAAAQGSQTTIGKIIYGDGTETLITVPNSEVGSRYDVSIPARQRIDGLHIPSHRAPSTYQQVQNIPTIPRRRQEVFNQYLSLVQSRYLGSYTQWSPQYYMKETLISLATFGYGNAVVDADPESARLFEGFQEILRKMLPPKLRFKRLQIRVPEVILETETGNFSIDALSGGAAAVIDLAWQVFMYEPSESEFVVTLDEPENHLHPELQQRVLADLLTAFPSVQFVVATHSPFIVGSVPHSHVYVLGYDDSRRVNSTLLDTVNKTGTANEILRDVLGLEFTIPVWVENRLENLIEKYSKKDFTEDNLMMLRQEMTSLGLGKHVPQTISMLAQKKDGQ”, for which the “soluble on expression in E. coli” value is on record as “not soluble”. The value for “MGSDKIHHHHHHMSKDCTIQDVFHRFYSSFESTHSISPAQRKAAYHIMNCKTGAFGVNVSVCEDCGCISVHYNSCRDRCCPMCQEFPKEKWVDARREDILDAPYFHVVFTVPEELNPIIYSNQKFLYAALYHAASDTLSELAADSKYLGTDIGYICILHTWGSTMNFHPHIHAIVLGGGLDVKNHWKDNGKDFFLPIKVISKTFRGKYMAELKQLWENDRLEFHGSAAPYKNHYTFKELLNTCYAKEWIPYCKKPFDGAESVIRYLGKYTHRIAISNYRIKDMTESTVTFSAKDYKNQGLWKEITISGEEFIRRFLMHVPPKRFVRIRHYGLLSSRNKKKKITLCRNILGCKKYISKLKDMDAPAIIRLLYNKDICKCSSCGGKIIPLPTEQHFIKPKPHMLC” was “not soluble”. Regarding “MSEKLQKVLARAGHGSRRELEALIRAGRVSVNGKVAVLGERLEDDNAVVRIDGHVVSVKAQEEVICRVLAYYKPEGELCTRHDPEGRRTVFDRLPKIRGSRWISVGRLDANTSGLLLFTTDGELANRLMHPSRQVEREYLVRVFGDVTEEKVRNLVRGVQLEDGMARFEDVMYAGGEGINHTFYVVINEGRNREVRRLWESQGTTVSRLKRVRYGDIFLDKKLPRGGWMELDLKQVNYLRELVELRPEKETVLNMAPDAATRKRERTRSQKIRRAVRRHEERISATPGRSGKAPARRKPGGESSTRNKVANQQQSSRKPRG”, the “soluble on expression in E. coli” value was “not soluble”. “MNGTGNTILVTGGTSGIGLGLALRLHKAGNKVIIAGRRKALLDKIVSEHPGIESVVLDVTDPHSIQHSSEALAISHPNLNVLINNAGIMHWEDLTDAKYLSTAENIVTTNLLGTIRMVYAFTPNLLKQPSATIVNVSSALAFVPLPATPTYSATKAAVHSFTQSLRVQLADSPVEVIELAPPGVRTTLLGQENDEHAMPLEAFLDEIFKLLDISPTPQELVVERAKPLRFAEANGSHGEVLKMLAGYKPPAE”: the “soluble on expression in E. coli” value is “not soluble”. “SAAAMAEQEGSKGSARNRGGVQRVEGKLRASVEKGDYYEAHQMYRTLFFRYMSQSKHIEARELMYSGALLFFSHSQQNSAADLSMLVLESLEKHEVKVTEELLENLAKLFSLMDPNSPERVAFVSRALKWSSGGSGKFGHQKLHQFLAITLWKEQNYYESRYHFLHSSDGEGCANMLVEYSSTRGYRSEVDMFVAQAVLQFLCLKNKTSASVVFTTYTQKHPSIERGPPFVQPLLNFIWFLLLAVEGGKLTVFTVLCEQYQPSLKRDPMYNEYLDRIGQLFFGLPPKQSSSYGGLLGNLLNSLMGSGEDDDVEDGQEDSSPIELD”: the “soluble on expression in E. coli” value is listed as “soluble”. The value for “GAMGDASRVRVSGQGLHEGHTFEPAEFIIDTRDAGYGGLSLSIEGPSKVDINTEDLEDGTCRVTYCPTEPGNYIINIKFADQHVPGSPFSVKVTGEGRVKESITRRRRAPSVANVGSHCDLSLKIPEISIQDMTAQVTSPSGKTHEAEIVEGENHTYCIRFVPAEMGTHTVSVKYKGQHVPGSPFQFTVGPLGEGGAHKVRAGGPGLERAEAGVPAEFSIWTREAGAGGLAIAVEGPSKAEISFEDRKDGSCGVAYVVQEPGDYEVSVKFNEEHIPDSPFVVPVASPS” was “soluble”; that for “MMHISVGATEMSWLSSLKSVFSPSQEVKEDDVQTILQSYSLENSSFVLKDRITQINVEGRILQLTIKTFPEEADHLQQIHDELADALQKAGIQELNLHVIQQKTAPRTEPKSSSSTTSSSSHLPPVVDASASPTPDPNNPPIQKKAPIQSEVPAHPRIKNVILVSSGKGGVGKSTTTVNLALALQKQGLKVGVLDADIYGPSIPTMLGNAGRTPKIENENFVPLDAYGLAVLSIGHLTGDNNTPVAWRGPKATGALMQLFNQTLWPDLDVLVIDMPPGTGDIQLTLAQRIPVTGALIVTTPQNVALLDASKGIELFNRVGIPVVGVIENMSTHICSNCGFEEQIFGVGGGDKLSEQYDIPLLGRLPLNAQIRENADKGQPSVIAQDTAAESYQMIAQALWTRVEQLPQRARDDKRIFLEHHHHHH” was “not soluble”.

Regarding “MGSDKIHHHHHHMAAKIITVFNQKGGCGKTTVSMHLAGTLGLRGARSMLVDMDEQGTATRWAAQASDERPFPASVIGLAPSGGAMHREVRKFVQDYDYIVVDCPPAVHSAAPSSALLISDLAIIPVVPSPPDLWAAVAAKTLAQHAQVQNETLLIRVMANMVQRRVSIARQAIEILGDDGEVPLLNSMIGSRSAFRECQAIGCTVHGVAGAREAVQEVDMMVDEVLSLIEH”, the “soluble on expression in E. coli” value is reported as “not soluble”. In the case of “MSQLYAQEPRLGIPDSMLRYGTVVTMEQGDTVYDIALPQVWVKHKKYKSRQLTPQERQELWRLIRDVKRTLPYAKMIAATLIETYEYMETMPDEKSRQKHLKRMEKEMKQQYMPEMKRLTLRQGKLLIKLIDRQCAQSSYQLLKAFLGGWKAGWWNLFARFYGASLKTRYEPDKNPEDALTERIVLLVEEKRI”, the “soluble on expression in E. coli” value is on record as “not soluble”. With “MPEEMDKPLISLHLVDSDSSLAKVPDEAPKVGILGSGDFARSLATRLVGSGFKVVVGSRNPKRTARLFPSAAQVTFQEEAVSSPEVIFVAVFREHYSSLCSLSDQLAGKILVDVSNPTEQEHLQHRESNAEYLASLFPTCTVVKAFNVISAWTLQAGPRDGNRQVPICGDQPEAKRAVSEMALAMGFMPVDMGSLASAWEVEAMPLRLLPAWKVP”, the “soluble on expression in E. coli” value was “soluble”. For “MGSDKIHHHHHHMTENKPSEQTNELKDLVVEKEFNQTLDDLLANPFGSDGESAASIVNNETDAAPRLVDMLTETNKKQALELSKQIEPGNQAAILGYGAPAQAKLHDFSHSMLAHVQKQDVGPIGDIISDLMYRLQEADPDELAARNKNVFTKMFHRVKQSINEITSKYQKIGTQIDRIALKLEHSKKRLMEDNSFLEQLYDKNKDYFQALNIYIAAGELKLEEINTKMLPELRKKAEQTGDQMDYQEVNDLTQFADRLDKRVYDLRLSRQITIQQAPQIRLIQNTNQALAEKIQSSIMTAIPLWKNQVAIALTLLRQQQAVAAQRQVSETTNELLKRNADMLKTNAIETARENERGIVDIETLKETQSSLIETLQETLKIQQEGRAKRAVAEKELVTMEQELKERLLEMK”, the “soluble on expression in E. coli” value was “not soluble”.
